According to patent US20170165338A1:

How the values were obtained:
HLA-A*02 (human) = experiment: UV-exchange b2m ELISA
HLA-A*24 (human) = experiment: UV-exchange b2m ELISA

Binder	peptide exchange yield (HLA-A*02 (human))	peptide exchange yield (HLA-A*24 (human))
MMVGDLLEV	50 to 75%	
LYLKLWNLI		50 to 75%
ALLAFFPGL	50 to 75%	
ILVEGISTV	50 to 75%	
FYSRLLQKF		50 to 75%
RYSTGLAGNLL		50 to 75%
FISERVEVV	> 75%	
EYQENFLSF		50 to 75%
SYALLTYMI		> 75%
ILGDLSHLL	50 to 75%	
LYLDKATLI		50 to 75%
ALHFSEDEI	20 to 49%	
YFDKVVTL		20 to 49%
MLAGIAITV	50 to 75%	
WYVNGVNYF		20 to 49%
VFQNFPLLF		> 75%
ALLPELREV	50 to 75%	
VHIPEVYLI		50 to 75%
MYDSYWRQF		> 75%
TYLRDQHFL		> 75%
EYPLVINTL		50 to 75%
IYQLDTASI		50 to 75%
LYLDIINLF		> 75%
KLQNIMMLL	20 to 49%	
IYKVGAPTI		50 to 75%
TLTSLLAQA	50 to 75%	
EFGSLHLEFL		< 20%

Binder	peptide exchange yield (HLA-A*02 (human))	peptide exchange yield (HLA-A*24 (human))
SVLDSTAKV	20 to 49%	
FFPPTRQMGLLF		> 75%
LLNPVVEFV	50 to 75%	
RLLGTEFQV	50 to 75%	
TYTTVPRVAF		> 75%
QYLENLEKL		50 to 75%
RFHPTPLLL		> 75%
IYTMIYRNL		> 75%
YLWATIQRI	50 to 75%	
RYFKGLVF		50 to 75%
QYSSVFKSL		> 75%
VLYDRPLKI	50 to 75%	
IYDDSFIRPVTF		50 to 75%
VYPWLGALL		> 75%
AILAHLNTV	> 75%	
ILNTHITEL	50 to 75%	
GFFIFNERF		50 to 75%
YLMDDTVEI	> 75%	
VFTSTARAF		50 to 75%
VFKASKITF		50 to 75%
KYIPYKYVI		50 to 75%
YYLEVGKTLI		> 75%
IFIEVFSHF		50 to 75%
KIIDFLSAL	50 to 75%	
TYTQDFNKF		50 to 75%
IFPQFLYQF		> 75%
YYVYIMNHL		50 to 75%
